In the supplement of paper PMC5998384:

What was measured:
HeLa Kyoto [1] = assay: solubility change mitosis vs G1/S (difference of NP-40 vs SDS log2 ratios) (log2 ratio difference); higher = more soluble in mitosis
HeLa Kyoto [2] = assay: solubility in G1/S (NP-40 vs SDS abundance) (log2 ratio); higher = more soluble; conditions: cell cycle stage: G1/S
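Wherever solubility change mitosis vs G1/S (difference of NP-40 vs SDS log2 ratios) is given: synchronized HeLa Kyoto cells (double thymidine block for G1/S, nocodazole release for mitosis), protein amounts in NP-40 versus SDS lysates quantified by mass spectrometry, three biological replicates.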
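Wherever solubility in G1/S (NP-40 vs SDS abundance) is given: HeLa Kyoto cells arrested at G1/S by double thymidine block, proteins quantified by TMT10plex mass spectrometry in mild NP-40 versus SDS extracts, three biological replicates.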

Chain of MBD4 (chain, as listed by the source): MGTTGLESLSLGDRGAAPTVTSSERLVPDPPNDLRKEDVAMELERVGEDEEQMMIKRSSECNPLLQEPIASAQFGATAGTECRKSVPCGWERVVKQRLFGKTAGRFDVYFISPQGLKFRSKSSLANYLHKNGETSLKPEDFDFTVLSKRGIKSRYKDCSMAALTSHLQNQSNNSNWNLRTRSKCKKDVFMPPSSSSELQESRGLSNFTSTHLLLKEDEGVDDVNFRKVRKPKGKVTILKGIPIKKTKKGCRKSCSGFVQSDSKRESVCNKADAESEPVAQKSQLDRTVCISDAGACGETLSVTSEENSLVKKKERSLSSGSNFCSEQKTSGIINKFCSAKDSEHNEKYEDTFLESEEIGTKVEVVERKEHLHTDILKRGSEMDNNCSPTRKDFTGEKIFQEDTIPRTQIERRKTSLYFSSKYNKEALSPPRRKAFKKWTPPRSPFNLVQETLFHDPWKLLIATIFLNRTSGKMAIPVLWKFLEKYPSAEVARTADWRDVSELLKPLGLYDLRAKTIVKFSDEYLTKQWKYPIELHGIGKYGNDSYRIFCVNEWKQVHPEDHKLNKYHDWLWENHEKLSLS

Question: With “MNGTRNWCTLVDVHPEDQAAGSVDILRLTLQGELTGDELEHIAQKAGRKTYAMVSSHSAGHSLASELVESHDGHEEIIKVYLKGRSGDKMIHEKNINQLKSEVQYIQEARNCLQKLREDISSKLDRNLGDSLHRQEIQVVLEKPNGFSQSPTALYSSPPEVDTCINEDVESLRKTVQDLLAKLQEAKRQHQSDCVAFEVTLSRYQREAEQSNVALQREEDRVEQKEAEVGELQRRLLGMETEHQALLAKVREGEVALEELRSNNADCQAEREKAATLEKEVAGLREKIHHLDDMLKSQQRKVRQMIEQLQNSKAVIQSKDATIQELKEKIAYLEAENLEMHDRMEHLIEKQISHGNFSTQARAKTENPGSIRISKPPSPKPMPVIRVVET [TUFT1]” as the substance, how does the “solubility change mitosis (log2)” value (HeLa Kyoto [1]) read?
Answer: 0.112

Question: And the “solubility in G1/S (log2)” value (HeLa Kyoto [2])?
Answer: 0.415

Question: How did the “solubility change mitosis (log2)” value (HeLa Kyoto [1]) turn out when “MMMVRRGLLAWISRVVVLLVLLCCAISVLYMLACTPKGDEEQLALPRANSPTGKEGYQAVLQEWEEQHRNYVSSLKRQIAQLKEELQERSEQLRNGQYQASDAAGLGLDRSPPEKTQADLLAFLHSQVDKAEVNAGVKLATEYAAVPFDSFTLQKVYQLETGLTRHPEEKPVRKDKRDELVEAIESALETLNSPAENSPNHRPYTASDFIEGIYRTERDKGTLYELTFKGDHKHEFKRLILFRPFGPIMKVKNEKLNMANTLINVIVPLAKRVDKFRQFMQNFREMCIEQDGRVHLTVVYFGKEEINEVKGILENTSKAANFRNFTFIQLNGEFSRGKGLDVGARFWKGSNVLLFFCDVDIYFTSEFLNTCRLNTQPGKKVFYPVLFSQYNPGIIYGHHDAVPPLEQQLVIKKETGFWRDFGFGMTCQYRSDFINIGGFDLDIKGWGGEDVHLYRKYLHSNLIVVRTPVRGLFHLWHEKRCMDELTPEQYKMCMQSKAMNEASHGQLGMLVFRHEIEAHLRKQKQKTSSKKT [CSGALNACT1]” was run?
Answer: 0.00125

Question: What about the “solubility in G1/S (log2)” value (HeLa Kyoto [2]) of the same substance?
Answer: 0.0522

Question: Which results are given for “MSSIKHLVYAVIRFLREQSQMDTYTSDEQESLEVAIQCLETVFKISPEDTHLAVSQPLTEMFTSSFCKNDVLPLSNSVPEDVGKADQLKDEGNNHMKEENYAAAVDCYTQAIELDPNNAVYYCNRAAAQSKLGHYTDAIKDCEKAIAIDSKYSKAYGRMGLALTALNKFEEAVTSYQKALDLDPENDSYKSNLKIAEQKLREVSSPTGTGLSFDMASLINNPAFISMAASLMQNPQVQQLMSGMMTNAIGGPAAGVGGLTDLSSLIQAGQQFAQQIQQQNPELIEQLRNHIRSRSFSSSAEEHS [SGTB]”?
Answer: solubility change mitosis (log2) (HeLa Kyoto [1]): 0.321; solubility in G1/S (log2) (HeLa Kyoto [2]): 0.092

Question: What does the source list for “MDFREILMIASKGQGVNNVPKRYSLAVGPPKKDPKVKGVQSAAVQAFLKRKEEELRRKALEEKRRKEELVKKRIELKHDKKARAMAKRTKDNFHGYNGIPIEEKSKKRQATESHTSQGTDREYEMEEENEFLEYNHAESEQEYEEEQEPPKVESKPKVPLKSAPPPMNFTDLLRLAEKKQFEPVEIKVVKKSEERPMTAEELREREFLERKHRRKKLETDGKLPPTVSKKAPSQKESVGTKLSKGSGDRHPSSKGMPLPHAEKKSRPSMANEKHLALSSSKSMPGERIKAGSGNSSQPSLREGHDKPVFNGAGKPHSSTSSPSVPKTSASRTQKSAVEHKAKKSLSHPSHSRPGPMVTPHNKAKSPGVRQPGSSSSSAPGQPSTGVARPTVSSGPVPRRQNGSSSSGPERSISGSKKPTNDSNPSRRTVSGTCGPGQPASSSGGPGRPISGSVSSARPLGSSRGPGRPVSSPHELRRPVSGLGPPGRSVSGPGRSISGSIPAGRTVSNSVPGRPVSSLGPGQTVSSSGPTIKPKCTVVSETISSKNIISRSSNGQMNGMKPPLSGYRAAQGPQRLPFPTGYKRQREYEEEDDDDDEYDSEMEDFIEDEGEPQEEISKHIREIFGYDRKKYKDESDYALRYMESSWKEQQKEEAKSLRLGMQEDLEEMRREEEEMQRRRAKKLKRR [SPTY2D1]”?
Answer: solubility change mitosis (log2) (HeLa Kyoto [1]): 0.873; solubility in G1/S (log2) (HeLa Kyoto [2]): -1.47

Question: For “MLRRPAPALAPAARLLLAGLLCGGGVWAARVNKHKPWLEPTYHGIVTENDNTVLLDPPLIALDKDAPLRFAESFEVTVTKEGEICGFKIHGQNVPFDAVVVDKSTGEGVIRSKEKLDCELQKDYSFTIQAYDCGKGPDGTNVKKSHKATVHIQVNDVNEYAPVFKEKSYKATVIEGKQYDSILRVEAVDADCSPQFSQICSYEIITPDVPFTVDKDGYIKNTEKLNYGKEHQYKLTVTAYDCGKKRATEDVLVKISIKPTCTPGWQGWNNRIEYEPGTGALAVFPNIHLETCDEPVASVQATVELETSHIGKGCDRDTYSEKSLHRLCGAAAGTAELLPSPSGSLNWTMGLPTDNGHDSDQVFEFNGTQAVRIPDGVVSVSPKEPFTISVWMRHGPFGRKKETILCSSDKTDMNRHHYSLYVHGCRLIFLFRQDPSEEKKYRPAEFHWKLNQVCDEEWHHYVLNVEFPSVTLYVDGTSHEPFSVTEDYPLHPSKIETQLVVGACWQEFSGVENDNETEPVTVASAGGDLHMTQFFRGNLAGLTLRSGKLADKKVIDCLYTCKEGLDLQVLEDSGRGVQIQAHPSQLVLTLEGEDLGELDKAMQHISYLNSRQFPTPGIRRLKITSTIKCFNEATCISVPPVDGYVMVLQPEEPKISLSGVHHFARAASEFESSEGVFLFPELRIISTITREVEPEGDGAEDPTVQESLVSEEIVHDLDTCEVTVEGEELNHEQESLEVDMARLQQKGIEVSSSELGMTFTGVDTMASYEEVLHLLRYRNWHARSLLDRKFKLICSELNGRYISNEFKVEVNVIHTANPMEHANHMAAQPQFVHPEHRSFVDLSGHNLANPHPFAVVPSTATVVIVVCVSFLVFMIILGVFRIRAAHRRTMRDQDTGKENEMDWDDSALTITVNPMETYEDQHSSEEEEEEEEEEESEDGEEEDDITSAESESSEEEEGEQGDPQNATRQQQLEWDDSTLSY [CLSTN1]”, which “solubility change mitosis (log2)” value (HeLa Kyoto [1]) is on record?
Answer: -0.189

Question: What about the “solubility in G1/S (log2)” value (HeLa Kyoto [2]) of the same substance?
Answer: -0.0306

Question: How did the “solubility change mitosis (log2)” value (HeLa Kyoto [1]) turn out when “MAEGEGYFAMSEDELACSPYIPLGGDFGGGDFGGGDFGGGDFGGGGSFGGHCLDYCESPTAHCNVLNWEQVQRLDGILSETIPIHGRGNFPTLELQPSLIVKVVRRRLAEKRIGVRDVRLNGSAASHVLHQDSGLGYKDLDLIFCADLRGEGEFQTVKDVVLDCLLDFLPEGVNKEKITPLTLKEAYVQKMVKVCNDSDRWSLISLSNNSGKNVELKFVDSLRRQFEFSVDSFQIKLDSLLLFYECSENPMTETFHPTIIGESVYGDFQEAFDHLCNKIIATRNPEEIRGGGLLKYCNLLVRGFRPASDEIKTLQRYMCSRFFIDFSDIGEQQRKLESYLQNHFVGLEDRKYEYLMTLHGVVNESTVCLMGHERRQTLNLITMLAIRVLADQNVIPNVANVTCYYQPAPYVADANFSNYYIAQVQPVFTCQQQTYSTWLPCN [FAM46A]” was run?
Answer: -0.172

Question: And the “solubility in G1/S (log2)” value (HeLa Kyoto [2])?
Answer: -0.00125

Question: How did the “solubility change mitosis (log2)” value (HeLa Kyoto [1]) turn out when HEATR5A was run?
Answer: -0.116

Question: And the “solubility in G1/S (log2)” value (HeLa Kyoto [2])?
Answer: -0.0946

Question: Which results are given for “MALRSAQGDGPTSGHWDGGAEKADFNAKRKKKVAEIHQALNSDPTDVAALRRMAISEGGLLTDEIRRKVWPKLLNVNANDPPPISGKNLRQMSKDYQQVLLDVRRSLRRFPPGMPEEQREGLQEELIDIILLILERNPQLHYYQGYHDIVVTFLLVVGERLATSLVEKLSTHHLRDFMDPTMDNTKHILNYLMPIIDQVNPELHDFMQSAEVGTIFALSWLITWFGHVLSDFRHVVRLYDFFLACHPLMPIYFAAVIVLYREQEVLDCDCDMASVHHLLSQIPQDLPYETLISRAGDLFVQFPPSELAREAAAQQQAERTAASTFKDFELASAQQRPDMVLRQRFRGLLRPEDRTKDVLTKPRTNRFVKLAVMGLTVALGAAALAVVKSALEWAPKFQLQLFP [TBC1D20]”?
Answer: solubility change mitosis (log2) (HeLa Kyoto [1]): -0.0896; solubility in G1/S (log2) (HeLa Kyoto [2]): -0.427

Question: What does the source list for ALAS1?
Answer: solubility change mitosis (log2) (HeLa Kyoto [1]): 0.00951; solubility in G1/S (log2) (HeLa Kyoto [2]): 0.132

Question: With “MVAMAEAEAGVAVEVRGLPPAVPDELLTLYFENRRRSGGGPVLSWQRLGCGGVLTFREPADAERVLAQADHELHGAQLSLRPAPPRAPARLLLQGLPPGTTPQRLEQHVQALLRASGLPVQPCCALASPRPDRALVQLPKPLSEADVRVLEEQAQNLGLEGTLVSLARVPQARAVRVVGDGASVDLLLLELYLENERRSGGGPLEDLQRLPGPLGTVASFQQWQVAERVLQQEHRLQGSELSLVPHYDILEPEELAENTSGGDHPSTQGPRATKHALLRTGGLVTALQGAGTVTMGSGEEPGQSGASLRTGPMVQGRGIMTTGSGQEPGQSGTSLRTGPMGSLGQAEQVSSMPMGSLEHEGLVSLRPVGLQEQEGPMSLGPVGSAGPVETSKGLLGQEGLVEIAMDSPEQEGLVGPMEITMGSLEKAGPVSPGCVKLAGQEGLVEMVLLMEPGAMRFLQLYHEDLLAGLGDVALLPLEGPDMTGFRLCGAQASCQAAEEFLRSLLGSISCHVLCLEHPGSARFLLGPEGQHLLQGLEAQFQCVFGTERLATATLDTGLEEVDPTEALPVLPGNAHTLWTPDSTGGDQEDVSLEEVRELLATLEGLDLDGEDWLPRELEEEGPQEQPEEEVTPGHEEEEPVAPSTVAPRWLEEEAALQLALHRSLEPQGQVAEQEEAAALRQALTLSLLEQPPLEAEEPPDGGTDGKAQLVVHSAFEQDVEELDRALRAALEVHVQEETVGPWRRTLPAELRARLERCHGVSVALRGDCTILRGFGAHPARAARHLVALLAGPWDQSLAFPLAASGPTLAGQTLKGPWNNLERLAENTGEFQEVVRAFYDTLDAARSSIRVVRVERVSHPLLQQQYELYRERLLQRCERRPVEQVLYHGTTAPAVPDICAHGFNRSFCGRNATVYGKGVYFARRASLSVQDRYSPPNADGHKAVFVARVLTGDYGQGRRGLRAPPLRGPGHVLLRYDSAVDCICQPSIFVIFHDTQALPTHLITCEHVPRASPDDPSGLPGRSPDT [PARP10]” as the substance, how does the “solubility change mitosis (log2)” value (HeLa Kyoto [1]) read?
Answer: 0.0134

Question: And the “solubility in G1/S (log2)” value (HeLa Kyoto [2])?
Answer: 0.14

Question: “MASESETLNPSARIMTFYPTMEEFRNFSRYIAYIESQGAHRAGLAKVVPPKEWKPRASYDDIDDLVIPAPIQQLVTGQSGLFTQYNIQKKAMTVREFRKIANSDKYCTPRYSEFEELERKYWKNLTFNPPIYGADVNGTLYEKHVDEWNIGRLRTILDLVEKESGITIEGVNTPYLYFGMWKTSFAWHTEDMDLYSINYLHFGEPKSWYSVPPEHGKRLERLAKGFFPGSAQSCEAFLRHKMTLISPLMLKKYGIPFDKVTQEAGEFMITFPYGYHAGFNHGFNCAESTNFATRRWIEYGKQAVLCSCRKDMVKISMDVFVRKFQPERYKLWKAGKDNTVIDHTLPTPEAAEFLKESELPPRAGNEEECPEEDMEGVEDGEEGDLKTSLAKHRIGTKRHRVCLEIPQEVSQSELFPKEDLSSEQYEMTECPAALAPVRPTHSSVRQVEDGLTFPDYSDSTEVKFEELKNVKLEEEDEEEEQAAAALDLSVNPASVGGRLVFSGSKKKSSSSLGSGSSRDSISSDSETSEPLSCRAQGQTGVLTVHSYAKGDGRVTVGEPCTRKKGSAARSFSERELAEVADEYMFSLEENKKSKGRRQPLSKLPRHHPLVLQECVSDDETSEQLTPEEEAEETEAWAKPLSQLWQNRPPNFEAEKEFNETMAQQAPHCAVCMIFQTYHQVEFGGFNQNCGNASDLAPQKQRTKPLIPEMCFTSTGCSTDINLSTPYLEEDGTSILVSCKKCSVRVHASCYGVPPAKASEDWMCSRCSANALEEDCCLCSLRGGALQRANDDRWVHVSCAVAILEARFVNIAERSPVDVSKIPLPRFKLKCIFCKKRRKRTAGCCVQCSHGRCPTAFHVSCAQAAGVMMQPDDWPFVVFITCFRHKIPNLERAKGALQSITAGQKVISKHKNGRFYQCEVVRLTTETFYEVNFDDGSFSDNLYPEDIVSQDCLQFGPPAEGEVVQVRWTDGQVYGAKFVASHPIQMYQVEFEDGSQLVVKRDDVYTLDEELPKRVKSRLSVASDMRFNEIFTEKEVKQEKKRQRVINSRYREDYIEPALYRAIME [KDM4A]” was tested. Which “solubility change mitosis (log2)” value (HeLa Kyoto [1]) did it give?
Answer: 0.0206

Question: And the “solubility in G1/S (log2)” value (HeLa Kyoto [2])?
Answer: -0.143

Question: For MBD4, which “solubility change mitosis (log2)” value (HeLa Kyoto [1]) is on record?
Answer: 0.427

Question: What about the “solubility in G1/S (log2)” value (HeLa Kyoto [2]) of the same substance?
Answer: -0.669
